Laboratory results: US20180291110A1 (Hoffmann-La Roche, published 2018)

Molecular target: T1, human transferrin receptor (recombinant, for surface plasmon resonance) (human, UniProt P02786 89-760)
T1 construct: also called huTfR; human transferrin receptor-biotinylated
Experiment: SPR 25C

T1 sequence (P02786 89-760 limits assumed): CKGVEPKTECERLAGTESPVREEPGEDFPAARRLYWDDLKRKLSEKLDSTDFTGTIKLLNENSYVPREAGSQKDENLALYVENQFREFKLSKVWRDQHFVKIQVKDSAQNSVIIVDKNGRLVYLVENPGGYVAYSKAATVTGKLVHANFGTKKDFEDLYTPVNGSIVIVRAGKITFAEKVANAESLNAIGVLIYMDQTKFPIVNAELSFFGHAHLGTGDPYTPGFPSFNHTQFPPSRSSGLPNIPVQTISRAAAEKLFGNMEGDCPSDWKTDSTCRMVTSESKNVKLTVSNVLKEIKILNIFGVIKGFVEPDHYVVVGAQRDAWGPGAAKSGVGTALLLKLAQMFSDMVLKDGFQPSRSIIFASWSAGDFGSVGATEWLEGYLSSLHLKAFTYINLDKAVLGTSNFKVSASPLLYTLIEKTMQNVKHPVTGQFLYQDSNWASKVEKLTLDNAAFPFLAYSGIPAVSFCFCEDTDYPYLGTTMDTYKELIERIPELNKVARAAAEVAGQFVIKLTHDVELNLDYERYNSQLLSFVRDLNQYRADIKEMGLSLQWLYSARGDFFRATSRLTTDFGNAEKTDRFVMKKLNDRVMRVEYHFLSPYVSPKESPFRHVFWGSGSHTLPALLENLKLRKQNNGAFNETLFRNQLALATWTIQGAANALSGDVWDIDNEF

| koff [s⁻¹] | Binder |
| --- | --- |
| 0.00756 | 2/99 VH1/VL17 (antibody, V domains shown) VH: VQLVETGGGLIQPGGSLRLSCAASGFSLSSYAMSWVRQAPGKGLEWVGYIWSGGSTDYADSVKGRFTISRDNSKNTLYLQMNSLRAEDTAVYYCARRYGTSYPDYGDANGFDPWGQGTLVTVSS VL: AIQLTQSPSSLSASVGDRVTITCRASQSISSYLAWYQQKPGKAPKLLIYRASTLASGVPSRFSGSGSGTDFTLTISSLQPEDFATYYCQQTYSSSNVDNTFGGGTKVEIK |
| 0.00712 | 2/99 VH2/VL17 (antibody, V domains shown) VH: EVQLVETGGGLIQPGGSLRLSCAASGFSLSSYAMSWVRQAPGKGLEWVGYIWSGGSTDYADSVKGRFTISRDNSKNTLYLQMNSLRAEDTAVYYCARRYGTSYPDYGDANGFDPWGQGTLVTVSS VL: AIQLTQSPSSLSASVGDRVTITCRASQSISSYLAWYQQKPGKAPKLLIYRASTLASGVPSRFSGSGSGTDFTLTISSLQPEDFATYYCQQTYSSSNVDNTFGGGTKVEIK |
| 0.00755 | 2/99 VH11/VL17 (antibody, V domains shown) VH: QQLLESGGGLVQPGGSLRLSCAASGFSLSSYAMSWVRQAPGKGLEWVGYIWSGGSTDYADSVKGRFTISRDNSKNTLYLQMNSLRAEDTAVYYCARRYGTSYPDYGDANGFDPWGQGTLVTVSS VL: AIQLTQSPSSLSASVGDRVTITCRASQSISSYLAWYQQKPGKAPKLLIYRASTLASGVPSRFSGSGSGTDFTLTISSLQPEDFATYYCQQTYSSSNVDNTFGGGTKVEIK |
| 0.00727 | 2/99 VH12/VL17 (antibody, V domains shown) VH: QVQLQESGPGLVKPSETLSLTCTVSGFSLSSYAMSWIRQPPGKGLEWIGYIWSGGSTDYNPSLKSRVTISVDTSKNQFSLKLSSVTAADTAVYYCARRYGTSYPDYGDANGFDPWGQGTLVTVSS VL: AIQLTQSPSSLSASVGDRVTITCRASQSISSYLAWYQQKPGKAPKLLIYRASTLASGVPSRFSGSGSGTDFTLTISSLQPEDFATYYCQQTYSSSNVDNTFGGGTKVEIK |
| 0.00745 | 2/99 VH5/VL17 (antibody, V domains shown) VH: QSMEETGGGLIQPGGSLRLSCAASGFSLSSYAMSWVRQAPGKGLEWVGYIWSGGSTDYADSVKGRFTISRDNSKNTLYLQMNSLRAEDTAVYYCARRYGTSYPDYGDANGFDPWGPGTLVTVSS VL: AIQLTQSPSSLSASVGDRVTITCRASQSISSYLAWYQQKPGKAPKLLIYRASTLASGVPSRFSGSGSGTDFTLTISSLQPEDFATYYCQQTYSSSNVDNTFGGGTKVEIK |
| 0.00425 | 2/99 VH9/VL17 (antibody, V domains shown) VH: QQLLESGGGLVQPGGSLRLSCAASGFTFSSYAMSWVRQAPGKGLEWVGYIWSGGSTDYADSVKGRFTISRDNSKNTLYLQMNSLRAEDTAVYYCAKRYGTSYPDYGDANGFDPWGQGTLVTVSS VL: AIQLTQSPSSLSASVGDRVTITCRASQSISSYLAWYQQKPGKAPKLLIYRASTLASGVPSRFSGSGSGTDFTLTISSLQPEDFATYYCQQTYSSSNVDNTFGGGTKVEIK |
| 0.00717 | 2/99 VH6/VL17 (antibody, V domains shown) VH: QQLVETGGGLIQPGGSLRLSCAASGFSLSSYAMSWVRQAPGKGLEWIGYIWSGGSTDYADSVKGRFTISRDNSKNTLYLQMNSLRAEDTAVYYCARRYGTSYPDYGDANGFDPWGQGTLVTVSS VL: AIQLTQSPSSLSASVGDRVTITCRASQSISSYLAWYQQKPGKAPKLLIYRASTLASGVPSRFSGSGSGTDFTLTISSLQPEDFATYYCQQTYSSSNVDNTFGGGTKVEIK |
| 0.00187 | 2/99 VH7/VL17 (antibody, V domains shown) VH: QQLVETGGGLIQPGGSLRLSCAASGFSLSSYAMSWVRQAPGKGLEWIGYIWSGGSTDYASWAKGRFTISRDNSKNTLYLQMNSLRAEDTAVYYCARRYGTSYPDYGDANGFDPWGQGTLVTVSS VL: AIQLTQSPSSLSASVGDRVTITCRASQSISSYLAWYQQKPGKAPKLLIYRASTLASGVPSRFSGSGSGTDFTLTISSLQPEDFATYYCQQTYSSSNVDNTFGGGTKVEIK |
| 0.00181 | 2/99 VH8/VL15 (antibody, V domains shown) VH: QQLVETGGGLIQPGGSLRLSCAASGFSLSSYAMSWVRQAPGKGLEWIGYIWSGGSTDYASWAKGRFTISKTSTTLYLQMNSLRAEDTAVYYCARRYGTSYPDYGDANGFDPWGQGTLVTVSS VL: DIVMTQSPDSLAVSLGERATINCKSSQSISSYLIWYQQKPGQPPKLLIYRASTLASGVPDRFSGSGSGTDFTLTISSLQAEDVAVYYCQQAYSSSNVDNTFGGGTKVEIK |
| 0.00776 | 2/99 VH12/VL15 (antibody, V domains shown) VH: QVQLQESGPGLVKPSETLSLTCTVSGFSLSSYAMSWIRQPPGKGLEWIGYIWSGGSTDYNPSLKSRVTISVDTSKNQFSLKLSSVTAADTAVYYCARRYGTSYPDYGDANGFDPWGQGTLVTVSS VL: DIVMTQSPDSLAVSLGERATINCKSSQSISSYLIWYQQKPGQPPKLLIYRASTLASGVPDRFSGSGSGTDFTLTISSLQAEDVAVYYCQQAYSSSNVDNTFGGGTKVEIK |
| 0.00603 | 2/99 VH15/VL15 (antibody, V domains shown) VH: QQLQESGPGLVKPSETLSLTCTVSGFSLSSYAMSWVRQPPGKGLEWIGYIWSGGSTDYNPSLKSRVTISVDTSKNQVSLKLSSVTAADTAVYYCARRYGTSYPDYGDANGFDPWGQGTLVTVSS VL: DIVMTQSPDSLAVSLGERATINCKSSQSISSYLIWYQQKPGQPPKLLIYRASTLASGVPDRFSGSGSGTDFTLTISSLQAEDVAVYYCQQAYSSSNVDNTFGGGTKVEIK |
| 0.00477 | 2/99 VH16/VL15 (antibody, V domains shown) VH: QQLQESGPGLVKPSETLSLTCTVSGFSLSSYAMSWVRQPPGKGLEWIGYIWSGGSTDYNPSLKSRVTISVDTSKNQVSLKLSSVTAADTAVYYCARRYGTSYPDYGDANGFDPWGPGTLVTVSS VL: DIVMTQSPDSLAVSLGERATINCKSSQSISSYLIWYQQKPGQPPKLLIYRASTLASGVPDRFSGSGSGTDFTLTISSLQAEDVAVYYCQQAYSSSNVDNTFGGGTKVEIK |
| 0.00179 | 2/99 VH22/VL15 (antibody, V domains shown) VH: QSMQESGPGLVKPSQTLSLTCTVSGFSLSSYAMSWVRQHPGKGLEWIGYIWSGGSTDYASWAKSRVTISVDTSKNQVSLKLSSVTAADTAVYYCARRYGTSYPDYGDANGFDPWGQGTLVTVSS VL: DIVMTQSPDSLAVSLGERATINCKSSQSISSYLIWYQQKPGQPPKLLIYRASTLASGVPDRFSGSGSGTDFTLTISSLQAEDVAVYYCQQAYSSSNVDNTFGGGTKVEIK |
| 0.00709 | 2/99 VH11/VL15 (antibody, V domains shown) VH: QQLLESGGGLVQPGGSLRLSCAASGFSLSSYAMSWVRQAPGKGLEWVGYIWSGGSTDYADSVKGRFTISRDNSKNTLYLQMNSLRAEDTAVYYCARRYGTSYPDYGDANGFDPWGQGTLVTVSS VL: DIVMTQSPDSLAVSLGERATINCKSSQSISSYLIWYQQKPGQPPKLLIYRASTLASGVPDRFSGSGSGTDFTLTISSLQAEDVAVYYCQQAYSSSNVDNTFGGGTKVEIK |
| 0.00758 | 2/99 VH18/VL15 (antibody, V domains shown) VH: QVQLQESGPGLVKPSQTLSLTCTVSGFSLSSYAMSWIRQHPGKGLEWIGYIWSGGSTDYAPSLKSRVTISVDTSKNQFSLKLSSVTAADTAVYYCARRYGTSYPDYGDANGFDPWGQGTLVTVSS VL: DIVMTQSPDSLAVSLGERATINCKSSQSISSYLIWYQQKPGQPPKLLIYRASTLASGVPDRFSGSGSGTDFTLTISSLQAEDVAVYYCQQAYSSSNVDNTFGGGTKVEIK |
| 0.001 | 2/99 VH19/VL15 (antibody, V domains shown) VH: QSMQESGPGLVKPSQTLSLTCTVSGFSLSSYAMSWIRQHPGKGLEWIGYIWSGGSTDYAPSLKSRVTISVDTSKNQFSLKLSSVTAADTAVYYCARRYGTSYPDYGDANGFDPWGQGTLVTVSS VL: DIVMTQSPDSLAVSLGERATINCKSSQSISSYLIWYQQKPGQPPKLLIYRASTLASGVPDRFSGSGSGTDFTLTISSLQAEDVAVYYCQQAYSSSNVDNTFGGGTKVEIK |
| 0.00112 | 2/99 VH8/VL17 (antibody, V domains shown) VH: QQLVETGGGLIQPGGSLRLSCAASGFSLSSYAMSWVRQAPGKGLEWIGYIWSGGSTDYASWAKGRFTISKTSTTLYLQMNSLRAEDTAVYYCARRYGTSYPDYGDANGFDPWGQGTLVTVSS VL: AIQLTQSPSSLSASVGDRVTITCRASQSISSYLAWYQQKPGKAPKLLIYRASTLASGVPSRFSGSGSGTDFTLTISSLQPEDFATYYCQQTYSSSNVDNTFGGGTKVEIK |
| 0.00739 | 2/99 VH9/VL15 (antibody, V domains shown) VH: QQLLESGGGLVQPGGSLRLSCAASGFTFSSYAMSWVRQAPGKGLEWVGYIWSGGSTDYADSVKGRFTISRDNSKNTLYLQMNSLRAEDTAVYYCAKRYGTSYPDYGDANGFDPWGQGTLVTVSS VL: DIVMTQSPDSLAVSLGERATINCKSSQSISSYLIWYQQKPGQPPKLLIYRASTLASGVPDRFSGSGSGTDFTLTISSLQAEDVAVYYCQQAYSSSNVDNTFGGGTKVEIK |
| 0.00711 | 2/99 VH13/VL15 (antibody, V domains shown) VH: QVQLQESGPGLVKPSETLSLTCTVSGFSLSSYAMSWIRQPPGKGLEWIGYIWSGGSTDYNPSLKSRVTISVDTSKNQVSLKLSSVTAADTAVYYCARRYGTSYPDYGDANGFDPWGQGTLVTVSS VL: DIVMTQSPDSLAVSLGERATINCKSSQSISSYLIWYQQKPGQPPKLLIYRASTLASGVPDRFSGSGSGTDFTLTISSLQAEDVAVYYCQQAYSSSNVDNTFGGGTKVEIK |
| 0.00785 | 2/99 VH20/VL15 (antibody, V domains shown) VH: QSMQESGPGLVKPSQTLSLTCTVSGFSLSSYAMSWIRQHPGKGLEWIGYIWSGGSTDYAPSLKSRVTISVDTSKNQVSLKLSSVTAADTAVYYCARRYGTSYPDYGDANGFDPWGQGTLVTVSS VL: DIVMTQSPDSLAVSLGERATINCKSSQSISSYLIWYQQKPGQPPKLLIYRASTLASGVPDRFSGSGSGTDFTLTISSLQAEDVAVYYCQQAYSSSNVDNTFGGGTKVEIK |
| 0.00156 | 2/99 VH17/VL15 (antibody, V domains shown) VH: QQLQESGPGLVKPSETLSLTCTVSGFSLSSYAMSWVRQPPGKGLEWIGYIWSGGSTDYNPSLKSRVTISKDTSKNQVSLKLSSVTAADTAVYYCARRYGTSYPDYGDANGFDPWGPGTLVTVSS VL: DIVMTQSPDSLAVSLGERATINCKSSQSISSYLIWYQQKPGQPPKLLIYRASTLASGVPDRFSGSGSGTDFTLTISSLQAEDVAVYYCQQAYSSSNVDNTFGGGTKVEIK |
| 0.00192 | 2/99 VH21/VL15 (antibody, V domains shown) VH: QSMQESGPGLVKPSQTLSLTCTVSGFSLSSYAMSWIRQHPGKGLEWIGYIWSGGSTDYASWAKSRVTISVDTSKNQVSLKLSSVTAADTAVYYCARRYGTSYPDYGDANGFDPWGQGTLVTVSS VL: DIVMTQSPDSLAVSLGERATINCKSSQSISSYLIWYQQKPGQPPKLLIYRASTLASGVPDRFSGSGSGTDFTLTISSLQAEDVAVYYCQQAYSSSNVDNTFGGGTKVEIK |
